Assay results taken from the supplement of paper PMC7125110.
± gives the standard error. For some assays here: Variants at the floor of the assay were thinned out.

B1: glmS ribozyme (parent)
chain: AUAAAAGCGCCAGAACUACAGAAAUGUAGUUGACGAGGAGGAGGUUUAUCGAAUUUUCGGCGGAUGCCUCCAAA

Experiments:
Settings in all cases: with glucosamine-6-phosphate
[1] = variants of: B1; assay: kcat; higher = faster cleavage; RNA array
In short: (§1)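 Over ~14 h at 37 °C, tiles were imaged as glucosamine-6-phosphate (40 μM to 10 mM) in HEPES/KCl/Mg(OAc)2 buffer flowed across sequenced MiSeq chips. The chips carried barcoded ribozyme variants transcribed in situ by E. coli RNA polymerase and tracked with a hybridised Cy3 probe. After normalisation to baseline and to non-cleaving reference variants, one- or two-exponential decay fits of per-tile medians gave kobs. kcat and KM followed from weighted Michaelis–Menten fits across concentrations.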

[2] = variants of: B1; assay: self-cleavage kobs at 40 uM GlcN6P; higher = faster cleavage; RNA array
In short: as §1

[3] = variants of: B1; assay: self-cleavage kobs at 160 uM GlcN6P; higher = faster cleavage; RNA array
In short: as §1

[4] = variants of: B1; assay: self-cleavage kobs at 640 uM GlcN6P; higher = faster cleavage; RNA array
In short: as §1

[5] = variants of: B1; assay: self-cleavage kobs at 2500 uM GlcN6P; higher = faster cleavage; RNA array
In short: as §1

[6] = variants of: B1; assay: self-cleavage kobs at 10000 uM GlcN6P; higher = faster cleavage; RNA array
In short: as §1

[7] = variants of: B1; assay: KM; higher = weaker cofactor use; RNA array
In short: as §1

Row | Variant | kcat [1] | self-cleavage kobs at 40 uM GlcN6P [2] | self-cleavage kobs at 160 uM GlcN6P [3] | self-cleavage kobs at 640 uM GlcN6P [4] | self-cleavage kobs at 2500 uM GlcN6P [5] | self-cleavage kobs at 10000 uM GlcN6P [6] | KM [7]
1 | A14G A33G G37U | < 1e-05 s⁻¹ | < 1e-05 s⁻¹ | < 1e-05 s⁻¹ | – | – | – | –
2 | U54A A64U | 0.000124 ± 1.2e-05 s⁻¹ | – | – | 7.79e-05 ± 2.6e-05 s⁻¹ | 7.51e-05 ± 2.5e-05 s⁻¹ | 0.00012 ± 1.1e-05 s⁻¹ | –
3 | U57G C68A C70U | 3.59e-05 ± 1.7e-05 s⁻¹ | – | – | 5.38e-05 ± 1.8e-05 s⁻¹ | – | – | –
4 | G43U U45G | 0.00603 ± 0.00084 s⁻¹ | 0.00013 ± 1.9e-05 s⁻¹ | 0.000412 ± 0.00012 s⁻¹ | 0.00124 ± 0.00027 s⁻¹ | 0.00422 ± 0.0011 s⁻¹ | 0.005 ± 0.00078 s⁻¹ | 1980 ± 380 µM
5 | A48U U57C U69G C70U | < 1e-05 s⁻¹ | – | – | – | – | – | –
6 | G41U U55G | 0.000303 ± 5.3e-05 s⁻¹ | 3.39e-05 ± 1.1e-05 s⁻¹ | 9.74e-05 ± 2.6e-05 s⁻¹ | 0.000276 ± 3.9e-05 s⁻¹ | 0.000419 ± 7.2e-05 s⁻¹ | 0.000252 ± 3.2e-05 s⁻¹ | –
7 | G7U A14U G29A G37U C61G U69C | 0.000491 ± 3.7e-05 s⁻¹ | 0.000105 ± 2.3e-05 s⁻¹ | 0.000282 ± 7.4e-05 s⁻¹ | 0.000389 ± 0.00014 s⁻¹ | 0.000446 ± 0.00019 s⁻¹ | – | 143 ± 19 µM
8 | A33U U56A | 3.49e-05 ± 1.6e-05 s⁻¹ | – | – | – | – | – | –
9 | G32A U46C | 0.000236 ± 2.1e-05 s⁻¹ | – | – | 6.49e-05 ± 8.9e-06 s⁻¹ | 0.000126 ± 2.3e-05 s⁻¹ | 0.000209 ± 3.3e-05 s⁻¹ | 1770 ± 290 µM
